From patent US6998239 (dated 2006) come the findings set out here.

The labels stand for the following.
T1: human CCX CKR with N-terminal Flag epitope, stably expressed on HEK293 cells (UniProt Q9NPB9 1-350)
T1 chain: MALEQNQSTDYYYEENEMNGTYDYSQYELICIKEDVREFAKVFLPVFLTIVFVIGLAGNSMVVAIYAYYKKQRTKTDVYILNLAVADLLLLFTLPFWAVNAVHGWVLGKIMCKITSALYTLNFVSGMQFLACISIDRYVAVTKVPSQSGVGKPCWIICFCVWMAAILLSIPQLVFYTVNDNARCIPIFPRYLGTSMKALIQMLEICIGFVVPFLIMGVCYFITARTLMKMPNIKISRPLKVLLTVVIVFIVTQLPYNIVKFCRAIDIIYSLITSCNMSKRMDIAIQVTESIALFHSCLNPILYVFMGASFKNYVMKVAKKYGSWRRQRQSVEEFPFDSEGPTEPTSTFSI

B1: human SLC (secondary lymphoid-tissue chemokine) (ligand)
chain: SDGGAQDCCLKYSQRKIPAKVVRSYRKQEPSLGCSIPAILFLPRKRSQAELCADPKELWVQQLMQHLDKTPSPQKPAQGCRKDRGASKTGKKGKGSKGCKRTERSQTPKGP
B2: mMIP-1gamma (murine macrophage inflammatory protein 1 gamma) (ligand)
chain: QITHATETKEVQSSLKAQQGLEIEMFHMGFQDSSDCCLSYNSRIQCSRFIGYFPTSGGCTRPGIIFISKRGFQVCANPSDRRVQRCIERLEQNSQPRTYKQ
B3: murine ELC (ligand)
chain: GANDAEDCCLSVTQRPIPGNIVKAFRYLLNEDGCRVPAVVFTTLRGYQLCAPPDQPWVDRIIRRLKKSSAKNKGNSTRRSPVS
B4: human TECK (thymus expressed chemokine) (ligand)
chain: QGVFEDCCLAYHYPIGWAVLRRAWTYRIQEVSGSCNLPAAIFYLPKRHRKVCGNPKSREVQRAMKLLDARNKVFAKLHHNTQTFQAGPHAVKKLSSGNSKLSSSKFSNPISSSKRNVSLLISANSGL
modifications: 125I label where used as radioligand
B5: murine TECK (ligand)
chain: QGAFEDCCLGYQHRIKWNVLRHARNYHQQEVSGSCNLRAVRFYFRQKVVCGNPEDMNVKRAMRILTARKRLVHWKSASDSQTERKKSNHMKSKVENPNSTSVRSATLGHPRMVMMPRKTNN
B6: human ELC (EBI1 ligand chemokine) (ligand)
chain: GTNDAEDCCLSVTQKPIPGYIVRNFHYLLIKDGCRVPAVVFTTLRGRQLCAPPDQPWVERIIQRLQRTSAKMKRRSS
modifications: 125I label where used as radioligand
B7: vMIPII (viral macrophage inflammatory protein II) from human Kaposi's sarcoma herpesvirus HHV8 (ligand)
chain: LGASWHRPDKCCLGYQKRPLPQVLLSSWYPTSQLCSKPGVIFLTKRGRQVCADKSKDWVKKLMQQLPVTAR
B8: MCP-3 (ligand)
chain: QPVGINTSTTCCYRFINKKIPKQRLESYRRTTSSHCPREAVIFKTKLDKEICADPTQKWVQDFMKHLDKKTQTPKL
B9: murine SLC (ligand)
chain: SDGGGQDCCLKYSQKKIPYSIVRGYRKQEPSLGCPIPAILFSPRKHSKPELCANPEEGWVQNLMRRLDQPPAPGKQSPGCRKNRGTSKSGKKGKGSKGCKRTEQTQPSRG

Usually IC50 stands for the concentration that gives 50% inhibition. Read a low IC50 as greater potency in that assay.

Bounds are passed on as bounds.

In this assay the target is T1, human CCX CKR with N-terminal Flag …. As to the kind of experiment: 125I-ELC competition binding.
With B1, the IC50 amounted to 12 nM. B2 yielded a 50% inhibitory concentration (IC50) of 70 nM. The molecule B3 showed an IC50 of 1 nM. The same measure for B4: 7 nM; for B5: 2 nM; for B6: 6 nM. Molecule B7 showed a concentration for half-maximal inhibition (IC50) of 90 nM.

B8: the IC50 was more than 2000 nM.

Turning to B9, the IC50 came out at 4 nM.
